In test [1] the target is NP-Renilla wild type (NP of influenza virus A/WSN/33) (Influenza A virus A/WSN/33, UniProt P15682). Briefly: LUMIER. The conditions noted are these: partners not purified.
Test [2] concerns the target NP of influenza virus A/WSN/33 in infected A549 cells (Influenza A virus A/WSN/33, UniProt P15682). The experiment in a line: flow cytometry on cells. The conditions noted are these: one partner purified.
Test [3] addresses NP of influenza virus A/PR/8/34 in infected A549 cells (Influenza A virus A/PR/8/34, UniProt P03466). Briefly: flow cytometry on cells. The settings on record: one partner purified.

Sequence of NP of influenza virus A/WSN/33 in infected A549 cells (P15682 whole entry): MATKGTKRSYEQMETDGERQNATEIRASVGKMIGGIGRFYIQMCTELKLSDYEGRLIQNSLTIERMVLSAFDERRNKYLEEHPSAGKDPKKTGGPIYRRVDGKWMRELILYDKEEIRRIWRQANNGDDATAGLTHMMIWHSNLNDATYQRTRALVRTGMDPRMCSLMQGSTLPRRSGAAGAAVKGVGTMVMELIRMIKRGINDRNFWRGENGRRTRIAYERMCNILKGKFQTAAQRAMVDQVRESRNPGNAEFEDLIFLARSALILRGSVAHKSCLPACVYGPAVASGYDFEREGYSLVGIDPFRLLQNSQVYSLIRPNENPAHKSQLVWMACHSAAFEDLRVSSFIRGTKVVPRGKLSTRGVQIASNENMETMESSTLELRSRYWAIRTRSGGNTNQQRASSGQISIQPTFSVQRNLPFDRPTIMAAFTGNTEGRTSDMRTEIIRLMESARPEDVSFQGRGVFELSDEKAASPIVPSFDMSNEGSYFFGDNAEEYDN
Sequence of NP-Renilla wild type (NP of influenza virus A/WSN/33) (P15682 whole entry): as above
Sequence of NP of influenza virus A/PR/8/34 in infected A549 cells (P03466 whole entry): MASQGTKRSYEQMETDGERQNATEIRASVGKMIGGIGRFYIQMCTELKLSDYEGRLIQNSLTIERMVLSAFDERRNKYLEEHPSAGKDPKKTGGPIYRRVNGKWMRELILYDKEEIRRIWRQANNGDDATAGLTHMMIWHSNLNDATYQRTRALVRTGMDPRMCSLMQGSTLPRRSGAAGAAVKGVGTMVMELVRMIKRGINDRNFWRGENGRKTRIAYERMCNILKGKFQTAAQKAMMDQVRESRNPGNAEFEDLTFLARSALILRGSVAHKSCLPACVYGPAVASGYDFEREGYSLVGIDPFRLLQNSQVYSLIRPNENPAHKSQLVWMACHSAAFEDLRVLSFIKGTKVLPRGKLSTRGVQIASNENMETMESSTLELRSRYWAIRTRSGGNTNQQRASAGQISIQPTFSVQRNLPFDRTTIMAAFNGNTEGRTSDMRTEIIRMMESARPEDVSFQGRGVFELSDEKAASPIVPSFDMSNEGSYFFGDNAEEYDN

B1: αNP-VHH1-HA (VHH)
VHH: QVQLQESGGGLVQAGGSLRLTCALSERTSTSYAQGWFRQPPGKEREFVASLRTHDGNTHYTDSVKGRFTISRDNAENTLYLQMNSLKTEDTAVYYCAASLGYSGAYASGYDYWGQGTQVTVSS
notes: also called anti-NP-VHH1-HA; HA-tagged anti-NP-VHH1; source: 293T, transfected (pCAGGS), in lysate
For the molecule B1, the binding result in test [1] is given as “binds”.

B2: αNP-VHH1-Alexa Fluor 647 (VHH)
VHH: QVQLQESGGGLVQAGGSLRLTCALSERTSTSYAQGWFRQPPGKEREFVASLRTHDGNTHYTDSVKGRFTISRDNAENTLYLQMNSLKTEDTAVYYCAASLGYSGAYASGYDYWGQGTQVTVSS
Consider B2, for which the binding result in test [2] and in test [3] was “binds” throughout.
